Four molecules from paper PMC7440162 (Cell, 2020) can be followed below.

What all share (experiment): SPR
On the technique in general: SPR reads the build-up and loss of mass on a sensor chip optically.

Assay [1] concerns the target T1, PRTG ECD-Fc (human, UniProt Q2VWP7 36-949).
T1 sequence: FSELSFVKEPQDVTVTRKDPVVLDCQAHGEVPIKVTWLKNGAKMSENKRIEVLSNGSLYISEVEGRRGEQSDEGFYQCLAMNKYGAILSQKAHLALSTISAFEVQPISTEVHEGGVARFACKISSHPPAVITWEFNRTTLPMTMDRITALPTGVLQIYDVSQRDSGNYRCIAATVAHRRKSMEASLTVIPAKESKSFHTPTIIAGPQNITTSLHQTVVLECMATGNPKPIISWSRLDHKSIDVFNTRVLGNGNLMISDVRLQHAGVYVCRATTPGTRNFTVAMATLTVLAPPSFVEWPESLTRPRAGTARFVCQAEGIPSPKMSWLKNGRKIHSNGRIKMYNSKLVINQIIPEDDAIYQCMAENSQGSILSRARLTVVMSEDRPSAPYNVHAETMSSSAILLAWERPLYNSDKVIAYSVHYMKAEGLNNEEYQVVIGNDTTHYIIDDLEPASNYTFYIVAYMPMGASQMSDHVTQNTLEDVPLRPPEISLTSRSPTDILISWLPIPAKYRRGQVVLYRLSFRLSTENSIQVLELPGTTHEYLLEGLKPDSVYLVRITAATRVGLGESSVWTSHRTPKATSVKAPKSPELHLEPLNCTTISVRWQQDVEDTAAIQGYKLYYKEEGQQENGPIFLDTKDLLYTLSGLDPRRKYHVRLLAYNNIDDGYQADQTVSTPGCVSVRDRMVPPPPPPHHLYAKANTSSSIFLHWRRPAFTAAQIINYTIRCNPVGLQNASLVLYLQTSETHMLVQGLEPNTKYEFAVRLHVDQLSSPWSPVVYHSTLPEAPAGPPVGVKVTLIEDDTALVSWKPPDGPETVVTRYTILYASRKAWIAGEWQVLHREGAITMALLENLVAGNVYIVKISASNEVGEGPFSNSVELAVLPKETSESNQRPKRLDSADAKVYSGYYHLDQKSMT

The target in assay [2] is T2, PTPRS ECD-Fc (human, UniProt Q13332 30-1282).
T2 sequence: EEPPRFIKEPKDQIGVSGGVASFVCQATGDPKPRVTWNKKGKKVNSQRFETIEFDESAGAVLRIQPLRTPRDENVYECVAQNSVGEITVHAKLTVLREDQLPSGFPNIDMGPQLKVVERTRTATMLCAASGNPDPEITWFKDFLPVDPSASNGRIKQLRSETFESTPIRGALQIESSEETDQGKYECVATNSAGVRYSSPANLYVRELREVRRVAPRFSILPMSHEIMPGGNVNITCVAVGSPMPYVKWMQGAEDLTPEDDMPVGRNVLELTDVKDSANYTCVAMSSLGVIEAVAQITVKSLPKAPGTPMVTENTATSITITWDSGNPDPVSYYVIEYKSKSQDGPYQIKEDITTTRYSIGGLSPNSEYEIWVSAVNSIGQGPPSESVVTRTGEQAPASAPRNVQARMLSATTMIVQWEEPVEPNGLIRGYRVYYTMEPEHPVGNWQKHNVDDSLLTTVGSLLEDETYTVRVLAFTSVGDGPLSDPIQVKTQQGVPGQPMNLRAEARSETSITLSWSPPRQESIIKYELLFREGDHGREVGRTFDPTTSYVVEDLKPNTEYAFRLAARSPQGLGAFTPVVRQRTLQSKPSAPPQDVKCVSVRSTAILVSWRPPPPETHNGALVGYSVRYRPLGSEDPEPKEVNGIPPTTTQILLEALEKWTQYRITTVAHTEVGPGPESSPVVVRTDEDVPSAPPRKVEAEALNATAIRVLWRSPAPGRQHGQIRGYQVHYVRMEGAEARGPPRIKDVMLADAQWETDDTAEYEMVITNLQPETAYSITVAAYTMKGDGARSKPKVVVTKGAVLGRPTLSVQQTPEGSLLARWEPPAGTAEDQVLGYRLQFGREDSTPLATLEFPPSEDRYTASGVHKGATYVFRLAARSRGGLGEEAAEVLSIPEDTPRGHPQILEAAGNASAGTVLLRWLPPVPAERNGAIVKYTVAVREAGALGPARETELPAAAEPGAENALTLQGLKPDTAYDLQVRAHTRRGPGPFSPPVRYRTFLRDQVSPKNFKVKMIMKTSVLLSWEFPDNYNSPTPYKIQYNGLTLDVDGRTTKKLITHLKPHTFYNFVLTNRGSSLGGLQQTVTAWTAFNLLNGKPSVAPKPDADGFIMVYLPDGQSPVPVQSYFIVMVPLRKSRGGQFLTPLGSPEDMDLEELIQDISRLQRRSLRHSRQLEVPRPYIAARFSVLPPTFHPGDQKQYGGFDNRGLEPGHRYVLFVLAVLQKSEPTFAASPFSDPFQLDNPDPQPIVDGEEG

For assay [3], the target named is T3, human ISLR2 ECD-Fc (human, UniProt Q6UXK2 19-589, biotin on the AviTag (as SPR ligand)).
T3 sequence: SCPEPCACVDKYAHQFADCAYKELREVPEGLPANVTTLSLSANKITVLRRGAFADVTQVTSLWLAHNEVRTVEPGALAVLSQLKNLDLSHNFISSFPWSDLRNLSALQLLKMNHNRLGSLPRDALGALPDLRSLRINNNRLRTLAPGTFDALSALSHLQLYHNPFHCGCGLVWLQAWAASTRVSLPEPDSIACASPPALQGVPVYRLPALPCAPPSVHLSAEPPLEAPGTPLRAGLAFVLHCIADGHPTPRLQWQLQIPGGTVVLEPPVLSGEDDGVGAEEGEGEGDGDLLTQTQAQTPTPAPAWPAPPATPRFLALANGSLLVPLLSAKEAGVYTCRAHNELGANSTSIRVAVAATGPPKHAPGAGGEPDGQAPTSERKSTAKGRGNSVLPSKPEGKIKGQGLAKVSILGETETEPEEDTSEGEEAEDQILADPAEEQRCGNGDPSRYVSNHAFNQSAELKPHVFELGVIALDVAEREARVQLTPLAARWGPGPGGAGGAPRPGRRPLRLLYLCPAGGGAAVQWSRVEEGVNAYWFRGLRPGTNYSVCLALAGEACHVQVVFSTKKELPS

B1: ICAM5 ECD-Fc (Fc fusion)
chain: EPFWADLQPRVAFVERGGSLWLNCSTNCPRPERGGLETSLRRNGTQRGLRWLARQLVDIREPETQPVCFFRCARRTLQARGLIRTFQRPDRVELMPLPPWQPVGENFTLSCRVPGAGPRASLTLTLLRGAQELIRRSFAGEPPRARGAVLTATVLARREDHGANFSCRAELDLRPHGLGLFENSSAPRELRTFSLSPDAPRLAAPRLLEVGSERPVSCTLDGLFPASEARVYLALGDQNLSPDVTLEGDAFVATATATASAEQEGARQLVCNVTLGGENRETRENVTIYSFPAPLLTLSEPSVSEGQMVTVTCAAGAQALVTLEGVPAAVPGQPAQLQLNATENDDRRSFFCDATLDVDGETLIKNRSAELRVLYAPRLDDSDCPRSWTWPEGPEQTLRCEARGNPEPSVHCARSDGGAVLALGLLGPVTRALSGTYRCKAANDQGEAVKDVTLTVEYAPALDSVGCPERITWLEGTEASLSCVAHGVPPPDVICVRSGELGAVIEGLLRVAREHAGTYRCEATNPRGSAAKNVAVTVEYGPRFEEPSCPSNWTWVEGSGRLFSCEVDGKPQPSVKCVGSGGATEGVLLPLAPPDPSPRAPRIPRVLAPGIYVCNATNRHGSVAKTVVVSAESPPEMDESTCPSHQTWLEGAEASALACAARGRPSPGVRCSREGIPWPEQQRVSREDAGTYHCVATNAHGTDSRTVTVGVEYRPVVAELAASPPGGVRPGGNFTLTCRAEAWPPAQISWRAPPGALNIGLSSNNSTLSVAGAMGSHGGEYECAATNAHGRHARRITVRVAGPW
modifications: biotin on the AviTag (as SPR ligand)
Take B1: in assay [1], the binding result was “binds”.

B2: IL1RAPL1 ECD-Fc (Fc fusion)
chain: LKVVTKRGSADGCTDWSIDIKKYQVLVGEPVRIKCALFYGYIRTNYSLAQSAGLSLMWYKSSGPGDFEEPIAFDGSRMSKEEDSIWFRPTLLQDSGLYACVIRNSTYCMKVSISLTVGENDTGLCYNSKMKYFEKAELSKSKEISCRDIEDFLLPTREPEILWYKECRTKTWRPSIVFKRDTLLIREVREDDIGNYTCELKYGGFVVRRTTELTVTAPLTDKPPKLLYPMESKLTIQETQLGDSANLTCRAFFGYSGDVSPLIYWMKGEKFIEDLDENRVWESDIRILKEHLGEQEVSISLIVDSVEEGDLGNYSCYVENGNGRRHASVLLHKRELMYT
modifications: biotin on the AviTag (as SPR ligand)
Regarding B2, the binding result in assay [2] is “binds”.

B3: LTF-Fc (Fc fusion)
chain: GRRRSVQWCAVSQPEATKCFQWQRNMRKVRGPPVSCIKRDSPIQCIQAIAENRADAVTLDGGFIYEAGLAPYKLRPVAAEVYGTERQPRTHYYAVAVVKKGGSFQLNELQGLKSCHTGLRRTAGWNVPIGTLRPFLNWTGPPEPIEAAVARFFSASCVPGADKGQFPNLCRLCAGTGENKCAFSSQEPYFSYSGAFKCLRDGAGDVAFIRESTVFEDLSDEAERDEYELLCPDNTRKPVDKFKDCHLARVPSHAVVARSVNGKEDAIWNLLRQAQEKFGKDKSPKFQLFGSPSGQKDLLFKDSAIGFSRVPPRIDSGLYLGSGYFTAIQNLRKSEEEVAARRARVVWCAVGEQELRKCNQWSGLSEGSVTCSSASTTEDCIALVLKGEADAMSLDGGYVYTAGKCGLVPVLAENYKSQQSSDPDPNCVDRPVEGYLAVAVVRRSDTSLTWNSVKGKKSCHTAVDRTAGWNIPMGLLFNQTGSCKFDEYFSQSCAPGSDPRSNLCALCIGDEQGENKCVPNSNERYYGYTGAFRCLAENAGDVAFVKDVTVLQNTDGNNNEAWAKDLKLADFALLCLDGKRKPVTEARSCHLAMAPNHAVVSRMDKVERLKQVLLHQQAKFGRNGSDCPDKFCLFQSETKNLLFNDNTECLARLHGKTTYEKYLGPQYVAGITNLKKCSTSPLLEACEFLRK
modifications: biotin on the AviTag (as SPR ligand)
In the case of B3, in assay [1], the binding result is recorded as “binds”.

B4: WFIKKN2-Fc (Fc fusion)
chain: LPPIRYSHAGICPNDMNPNLWVDAQSTCRRECETDQECETYEKCCPNVCGTKSCVAARYMDVKGKKGPVGMPKEATCDHFMCLQQGSECDIWDGQPVCKCKDRCEKEPSFTCASDGLTYYNRCYMDAEACSKGITLAVVTCRYHFTWPNTSPPPPETTMHPTTASPETPELDMAAPALLNNPVHQSVTMGETVSFLCDVVGRPRPEITWEKQLEDRENVVMRPNHVRGNVVVTNIAQLVIYNAQLQDAGIYTCTARNVAGVLRADFPLSVVRGHQAAATSESSPNGTAFPAAECLKPPDSEDCGEEQTRWHFDAQANNCLTFTFGHCHRNLNHFETYEACMLACMSGPLAACSLPALQGPCKAYAPRWAYNSQTGQCQSFVYGGCEGNGNNFESREACEESCPFPRGNQRCRACKPRQKLVTSFCRSDFVILGRVSELTEEPDSGRALVTVDEVLKDEKMGLKFLGQEPLEVTLLHVDWACPCPNVTVSEMPLIIMGEVDGGMAMLRPDSFVGASSARRVRKLREVMHKKTCDVLKEFLGLH
modifications: biotin on the AviTag (as SPR ligand)
In the case of B4, the binding result in assay [1] and in assay [3] was “binds” throughout.
